Measured values reported in article PMC12612594, “Nuclear Magnetic Resonance‐based fragment screen of the E3 ligase Fem‐1 homolog B” (Protein Science : A Publication of the Protein Society, 2025).
“And” between values parts separate entries of the source, which are not always exact repeats. Identical values can stand only once.

test: thermal shift assay of FEM1B constructs; assay type: physicochemical; settings: average of three replicates
Experimental: The substrate binding domain of FEM1B (residues 1–356, ~42 kDa molecular weight) was prepared for NMR‐based screening. However, this construct (FEM1B WT) was prone to aggregation and was not suitable for the NMR experiments. […] To reduce the potential for aggregation, we prepared several mutants of FEM1B constructs and evaluated their stability using a thermal shift assay (Table 1).

| Molecule | Tm ± SD |
| --- | --- |
| FEM1B WT: substrate binding domain of FEM1B (residues 1–356), wild type (protein, UniProt Q9UK73 1-356, looked up, fragment, substrate binding domain) MEGLAGYVYKAASEGKVLTLAALLLNRSESDIRYLLGYVSQQGGQRSTPLIIAARNGHAKVVRLLLEHYRVQTQQTGTVRFDGYVIDGATALWCAAGAGHFEVVKLLVSHGANVNHTTVTNSTPLRAACFDGRLDIVKYLVENNANISIANKYDNTCLMIAAYKGHTDVVRYLLEQRADPNAKAHCGATALHFAAEAGHIDIVKELIKWRAAIVVNGHGMTPLKVAAESCKADVVELLLSHADCDRRSRIEALELLGASFANDRENYDIIKTYHYLYLAMLERFQDGDNILEKEVLPPIHAYGNRTECRNPQELESIRQDRDALHMEGLIVRERILGADNIDVSHPIIYRGAVYAD | 35.6 °C and 35.6 ± 0.5 °C |
| FEM1B‐7: FEM1B construct, mutations L4E, L18E, L25S, L281E, R321D (protein, UniProt Q9UK73 1-627, looked up, variant L4E L18E L25S L281E R321D) Protein fem-1 homolog B: MEGEAGYVYKAASEGKVETLAALLSNRSESDIRYLLGYVSQQGGQRSTPLIIAARNGHAKVVRLLLEHYRVQTQQTGTVRFDGYVIDGATALWCAAGAGHFEVVKLLVSHGANVNHTTVTNSTPLRAACFDGRLDIVKYLVENNANISIANKYDNTCLMIAAYKGHTDVVRYLLEQRADPNAKAHCGATALHFAAEAGHIDIVKELIKWRAAIVVNGHGMTPLKVAAESCKADVVELLLSHADCDRRSRIEALELLGASFANDRENYDIIKTYHYLYLAMEERFQDGDNILEKEVLPPIHAYGNRTECRNPQELESIRQDDDALHMEGLIVRERILGADNIDVSHPIIYRGAVYADNMEFEQCIKLWLHALHLRQKGNRNTHKDLLRFAQVFSQMIHLNETVKAPDIECVLRCSVLEIEQSMNRVKNISDADVHNAMDNYECNLYTFLYLVCISTKTQCSEEDQCKINKQIYNLIHLDPRTREGFTLLHLAVNSNTPVDDFHTNDVCSFPNALVTKLLLDCGAEVNAVDNEGNSALHIIVQYNRPISDFLTLHSIIISLVEAGAHTDMTNKQNKTPLDKSTTGVSEILLKTQMKMSLKCLAARAVRANDINYQDQIPRTLEEFVGFH | 28.7 ± 1.4 °C |
| FEM1B‐9: FEM1B construct, mutations L4E, A21E, L25S, L281E, R321D (protein, UniProt Q9UK73 1-627, looked up, variant L4E A21E L25S L281E R321D) Protein fem-1 homolog B: MEGEAGYVYKAASEGKVLTLEALLSNRSESDIRYLLGYVSQQGGQRSTPLIIAARNGHAKVVRLLLEHYRVQTQQTGTVRFDGYVIDGATALWCAAGAGHFEVVKLLVSHGANVNHTTVTNSTPLRAACFDGRLDIVKYLVENNANISIANKYDNTCLMIAAYKGHTDVVRYLLEQRADPNAKAHCGATALHFAAEAGHIDIVKELIKWRAAIVVNGHGMTPLKVAAESCKADVVELLLSHADCDRRSRIEALELLGASFANDRENYDIIKTYHYLYLAMEERFQDGDNILEKEVLPPIHAYGNRTECRNPQELESIRQDDDALHMEGLIVRERILGADNIDVSHPIIYRGAVYADNMEFEQCIKLWLHALHLRQKGNRNTHKDLLRFAQVFSQMIHLNETVKAPDIECVLRCSVLEIEQSMNRVKNISDADVHNAMDNYECNLYTFLYLVCISTKTQCSEEDQCKINKQIYNLIHLDPRTREGFTLLHLAVNSNTPVDDFHTNDVCSFPNALVTKLLLDCGAEVNAVDNEGNSALHIIVQYNRPISDFLTLHSIIISLVEAGAHTDMTNKQNKTPLDKSTTGVSEILLKTQMKMSLKCLAARAVRANDINYQDQIPRTLEEFVGFH | 28.5 ± 1.3 °C |
| FEM1B‐8: FEM1B construct, mutations L4E, A21E, L25S, I270N, L281E (protein, UniProt Q9UK73 1-627, looked up, variant L4E A21E L25S I270N L281E) Protein fem-1 homolog B: MEGEAGYVYKAASEGKVLTLEALLSNRSESDIRYLLGYVSQQGGQRSTPLIIAARNGHAKVVRLLLEHYRVQTQQTGTVRFDGYVIDGATALWCAAGAGHFEVVKLLVSHGANVNHTTVTNSTPLRAACFDGRLDIVKYLVENNANISIANKYDNTCLMIAAYKGHTDVVRYLLEQRADPNAKAHCGATALHFAAEAGHIDIVKELIKWRAAIVVNGHGMTPLKVAAESCKADVVELLLSHADCDRRSRIEALELLGASFANDRENYDINKTYHYLYLAMEERFQDGDNILEKEVLPPIHAYGNRTECRNPQELESIRQDRDALHMEGLIVRERILGADNIDVSHPIIYRGAVYADNMEFEQCIKLWLHALHLRQKGNRNTHKDLLRFAQVFSQMIHLNETVKAPDIECVLRCSVLEIEQSMNRVKNISDADVHNAMDNYECNLYTFLYLVCISTKTQCSEEDQCKINKQIYNLIHLDPRTREGFTLLHLAVNSNTPVDDFHTNDVCSFPNALVTKLLLDCGAEVNAVDNEGNSALHIIVQYNRPISDFLTLHSIIISLVEAGAHTDMTNKQNKTPLDKSTTGVSEILLKTQMKMSLKCLAARAVRANDINYQDQIPRTLEEFVGFH | 34.5 ± 0.2 °C |
| FEM1B‐4: FEM1B construct, mutations L4E, L18E, L281E, R321D (protein, UniProt Q9UK73 1-627, looked up, variant L4E L18E L281E R321D) Protein fem-1 homolog B: MEGEAGYVYKAASEGKVETLAALLLNRSESDIRYLLGYVSQQGGQRSTPLIIAARNGHAKVVRLLLEHYRVQTQQTGTVRFDGYVIDGATALWCAAGAGHFEVVKLLVSHGANVNHTTVTNSTPLRAACFDGRLDIVKYLVENNANISIANKYDNTCLMIAAYKGHTDVVRYLLEQRADPNAKAHCGATALHFAAEAGHIDIVKELIKWRAAIVVNGHGMTPLKVAAESCKADVVELLLSHADCDRRSRIEALELLGASFANDRENYDIIKTYHYLYLAMEERFQDGDNILEKEVLPPIHAYGNRTECRNPQELESIRQDDDALHMEGLIVRERILGADNIDVSHPIIYRGAVYADNMEFEQCIKLWLHALHLRQKGNRNTHKDLLRFAQVFSQMIHLNETVKAPDIECVLRCSVLEIEQSMNRVKNISDADVHNAMDNYECNLYTFLYLVCISTKTQCSEEDQCKINKQIYNLIHLDPRTREGFTLLHLAVNSNTPVDDFHTNDVCSFPNALVTKLLLDCGAEVNAVDNEGNSALHIIVQYNRPISDFLTLHSIIISLVEAGAHTDMTNKQNKTPLDKSTTGVSEILLKTQMKMSLKCLAARAVRANDINYQDQIPRTLEEFVGFH | 35.0 ± 0.5 °C |
| FEM1B‐5: FEM1B construct, mutations L4E, A21E, L18E, L25S (protein, UniProt Q9UK73 1-627, looked up, variant L4E A21E L18E L25S) Protein fem-1 homolog B: MEGEAGYVYKAASEGKVETLEALLSNRSESDIRYLLGYVSQQGGQRSTPLIIAARNGHAKVVRLLLEHYRVQTQQTGTVRFDGYVIDGATALWCAAGAGHFEVVKLLVSHGANVNHTTVTNSTPLRAACFDGRLDIVKYLVENNANISIANKYDNTCLMIAAYKGHTDVVRYLLEQRADPNAKAHCGATALHFAAEAGHIDIVKELIKWRAAIVVNGHGMTPLKVAAESCKADVVELLLSHADCDRRSRIEALELLGASFANDRENYDIIKTYHYLYLAMLERFQDGDNILEKEVLPPIHAYGNRTECRNPQELESIRQDRDALHMEGLIVRERILGADNIDVSHPIIYRGAVYADNMEFEQCIKLWLHALHLRQKGNRNTHKDLLRFAQVFSQMIHLNETVKAPDIECVLRCSVLEIEQSMNRVKNISDADVHNAMDNYECNLYTFLYLVCISTKTQCSEEDQCKINKQIYNLIHLDPRTREGFTLLHLAVNSNTPVDDFHTNDVCSFPNALVTKLLLDCGAEVNAVDNEGNSALHIIVQYNRPISDFLTLHSIIISLVEAGAHTDMTNKQNKTPLDKSTTGVSEILLKTQMKMSLKCLAARAVRANDINYQDQIPRTLEEFVGFH | 38.8 ± 0.3 °C |
| FEM1B‐6: FEM1B construct, mutations Y84A, I270N, L281E, R321D (protein, UniProt Q9UK73 1-627, looked up, variant Y84A I270N L281E R321D) Protein fem-1 homolog B: MEGLAGYVYKAASEGKVLTLAALLLNRSESDIRYLLGYVSQQGGQRSTPLIIAARNGHAKVVRLLLEHYRVQTQQTGTVRFDGAVIDGATALWCAAGAGHFEVVKLLVSHGANVNHTTVTNSTPLRAACFDGRLDIVKYLVENNANISIANKYDNTCLMIAAYKGHTDVVRYLLEQRADPNAKAHCGATALHFAAEAGHIDIVKELIKWRAAIVVNGHGMTPLKVAAESCKADVVELLLSHADCDRRSRIEALELLGASFANDRENYDINKTYHYLYLAMEERFQDGDNILEKEVLPPIHAYGNRTECRNPQELESIRQDDDALHMEGLIVRERILGADNIDVSHPIIYRGAVYADNMEFEQCIKLWLHALHLRQKGNRNTHKDLLRFAQVFSQMIHLNETVKAPDIECVLRCSVLEIEQSMNRVKNISDADVHNAMDNYECNLYTFLYLVCISTKTQCSEEDQCKINKQIYNLIHLDPRTREGFTLLHLAVNSNTPVDDFHTNDVCSFPNALVTKLLLDCGAEVNAVDNEGNSALHIIVQYNRPISDFLTLHSIIISLVEAGAHTDMTNKQNKTPLDKSTTGVSEILLKTQMKMSLKCLAARAVRANDINYQDQIPRTLEEFVGFH | 37.3 ± 0.04 °C |
| FEM1B‐3: FEM1B construct, mutations L4E, L18E, L281E (protein, UniProt Q9UK73 1-627, looked up, variant L4E L18E L281E) Protein fem-1 homolog B: MEGEAGYVYKAASEGKVETLAALLLNRSESDIRYLLGYVSQQGGQRSTPLIIAARNGHAKVVRLLLEHYRVQTQQTGTVRFDGYVIDGATALWCAAGAGHFEVVKLLVSHGANVNHTTVTNSTPLRAACFDGRLDIVKYLVENNANISIANKYDNTCLMIAAYKGHTDVVRYLLEQRADPNAKAHCGATALHFAAEAGHIDIVKELIKWRAAIVVNGHGMTPLKVAAESCKADVVELLLSHADCDRRSRIEALELLGASFANDRENYDIIKTYHYLYLAMEERFQDGDNILEKEVLPPIHAYGNRTECRNPQELESIRQDRDALHMEGLIVRERILGADNIDVSHPIIYRGAVYADNMEFEQCIKLWLHALHLRQKGNRNTHKDLLRFAQVFSQMIHLNETVKAPDIECVLRCSVLEIEQSMNRVKNISDADVHNAMDNYECNLYTFLYLVCISTKTQCSEEDQCKINKQIYNLIHLDPRTREGFTLLHLAVNSNTPVDDFHTNDVCSFPNALVTKLLLDCGAEVNAVDNEGNSALHIIVQYNRPISDFLTLHSIIISLVEAGAHTDMTNKQNKTPLDKSTTGVSEILLKTQMKMSLKCLAARAVRANDINYQDQIPRTLEEFVGFH | 35.0 ± 0.5 °C |
| FEM1B‐10: FEM1B construct, mutations L4E, L18E, L24S, I270N, L281E (protein, UniProt Q9UK73 1-627, looked up, variant L4E L18E L24S I270N L281E) Protein fem-1 homolog B: MEGEAGYVYKAASEGKVETLAALSLNRSESDIRYLLGYVSQQGGQRSTPLIIAARNGHAKVVRLLLEHYRVQTQQTGTVRFDGYVIDGATALWCAAGAGHFEVVKLLVSHGANVNHTTVTNSTPLRAACFDGRLDIVKYLVENNANISIANKYDNTCLMIAAYKGHTDVVRYLLEQRADPNAKAHCGATALHFAAEAGHIDIVKELIKWRAAIVVNGHGMTPLKVAAESCKADVVELLLSHADCDRRSRIEALELLGASFANDRENYDINKTYHYLYLAMEERFQDGDNILEKEVLPPIHAYGNRTECRNPQELESIRQDRDALHMEGLIVRERILGADNIDVSHPIIYRGAVYADNMEFEQCIKLWLHALHLRQKGNRNTHKDLLRFAQVFSQMIHLNETVKAPDIECVLRCSVLEIEQSMNRVKNISDADVHNAMDNYECNLYTFLYLVCISTKTQCSEEDQCKINKQIYNLIHLDPRTREGFTLLHLAVNSNTPVDDFHTNDVCSFPNALVTKLLLDCGAEVNAVDNEGNSALHIIVQYNRPISDFLTLHSIIISLVEAGAHTDMTNKQNKTPLDKSTTGVSEILLKTQMKMSLKCLAARAVRANDINYQDQIPRTLEEFVGFH | 36.3 ± 0.1 °C |
